Assay results as given in the supplement of paper PMC10567573.
± gives the standard deviation.

Test: protein stability index of a GFP-peptide fusion (GPS, HEK-293T) (PSI 1-6); higher = more stable
[1] = treatment: DMSO, c terminus: a fixed tail appended
[2] = treatment: MLN4924 1 uM, 8 h, c terminus: a fixed tail appended
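Further: 24-mer peptide tiles fused after GFP, lentivirally expressed, FACS-sorted into six equal bins by GFP/DsRed ratio, decoded by Illumina sequencing, PSI is the read-weighted mean bin number.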

Sequence	protein stability index [1]	protein stability index [2]	protein stability index (treatment: DMSO, c terminus: native)	protein stability index (treatment: MLN4924 1 uM, 8 h, c terminus: native)
ALLFIPRRAPFDLFENKKKKNNIK [HSP90AB1]	2.19 ± 0.27			
RELAERGVRIVSRGRTQLFSLNPR [PCDHGA10]	3.2 ± 0.35	3.33 ± 0.12		
TAAFTTAKAAALSTKTPAPCSEFM [SPAG8]	3.67 ± 0.14	3.84 ± 0.24		
HSSWTPPNAQYWSQFHSVRPQGPQ [DNAJC4]	3.23 ± 0.053	3.34 ± 0.22		
HYSLLTSQPLDREATSHYIIELLA [PCDHGC5]	2.36 ± 0.13	2.63 ± 0.32		
SKYENYFSASERLSLKRELSWYRG [HESX1]	2.44 ± 0.26	2.31 ± 0.33		
SGTGKKEKEKKNRKGKDKENGSVS [EIF5]	5.36 ± 0.24	5.31 ± 0.21		
GRQERGLPPSMERGYPPPRDSYSS [RBMX]	4.77 ± 0.088	4.71 ± 0.19		
PEEPAASTDPNIVRKKERGREEKC [TAF7L]	5.28 ± 0.53	5.64 ± 0.32		
YQLGEEALLKFREDEGFVREEEDR [KCNA4]	4.51 ± 0.22	4.85 ± 0.31		
QRSTVFKTTIPEEEEEEEEAAGVV [LMNB1]	5.6 ± 0.11	5.56 ± 0.22		
AVMRGQILNLTQALKDNKSPLHLV [PI4K2A]	2.33 ± 0.33	2.3 ± 0.24		
AYGHRQCLELVSCFVLFSLTHTHT [ANKRD44]	2.52 ± 1	3.3 ± 0.47		
RCVRVFLEHGADPTVKDLIGGFTA [ASB7]	2.4 ± 0.78	2.04 ± 0.41		
KALQEENRDLRKASVTIQARAEQE [CCDC6]	5.32 ± 0.2	5.32 ± 0.091		
HRRRNQLIKKKKEELEAKRLQCPF [FAM107A]	3.95 ± 0.38	4.22 ± 0.16		
AVHSGTPVTNNLLEKCKTLVSQSN [SPACA9]	3.76 ± 0.42	3.78 ± 0.39		
EGCTGALHILARDVHNRIVIRGLN [CTNNB1]	2.65 ± 0.23	2.71 ± 0.17		
FSLNPRSGSLITAGRIDREELCAQ [PCDHGA10]	3.83 ± 0.38	3.93 ± 0.37		
HTLRASMRELGLLIFFLFIGVILF [KCNA4]	2.86 ± 0.53	2.61 ± 0.49		
MKALILVGGYGTRLRPLTLSTPKP [GMPPB]	2.18 ± 0.61	2.23 ± 0.23		
QVFRLAFRSGALDLDSCSRDGALL [MYORG]	2.33 ± 0.29	2.14 ± 0.091		
QYYDDEKKTWKILTIMPYNSAHHC [KLHL14]	2.56 ± 0.43	2.59 ± 0.42		

Sequence	protein stability index [1]	protein stability index [2]	protein stability index (treatment: DMSO, c terminus: native)	protein stability index (treatment: MLN4924 1 uM, 8 h, c terminus: native)
ARFQDKQYSSHHTAEKRKRLGELF [CHGB]	3.58 ± 0.44	3.56 ± 0.11		
NGVLEPLYLCPNGARCATWFQDPT [SLC25A39]	2.48 ± 0.19	2.47 ± 0.074		
ALSLIRFPLMTIEEFAAGPAQSGI [BTBD1]	2.09 ± 0.35	2.04 ± 0.13		
VWVGVIRYLTFFHNYNILIATLRV [MCOLN1]	3.13 ± 0.1	2.86 ± 0.37		
VLVNLVPAHKNLNKQAYDLAKALL [PDS5B]	3.47 ± 0.59	3.07 ± 0.89		
THGVGLVLRVEQQPHLPLLSTLAG [SCNN1D]	2.12 ± 0.23	2.17 ± 0.15		
LPLLRQTAGKVLAHFYGVKLEGKV [ESRRA]	2.26 ± 0.31	2.11 ± 0.18		
VLLTQIESKKHQVETAFERLQQEL [TRIM15]	2.73 ± 0.27	2.77 ± 0.38		
ANYLEKVRQLERENAELESRIQEW [KRT36]	4.27 ± 0.3	4.46 ± 0.16		
LCPLCGKNFSNNSNLIRHQRIHAA [ZNF263]	3.97 ± 0.5	4.12 ± 0.47		
VNEFSLKGVDFQKFCMNGAALCAL [ETS1]	2.32 ± 0.76	2.3 ± 0.033		
CTRFTDEYQLFEELGKGAFSVVRR [CAMK2D]	2.81 ± 0.31	2.84 ± 0.39		
PTVDLNQVLNETRSQYEALVETNR [KRT34]	3.37 ± 0.55	3.79 ± 0.48		
LESSEELLETANQTLQAMDSEDFP [FSD1]	5.4 ± 0.19	5.57 ± 0.1		
SLEIEEKINKIRWLPQQNAAYFLL [PPP2R2B]	2.34 ± 1.1	2.01 ± 1.1		
HQRTHTGEKPFTCHECGKKFSQNS [ZNF75A]	3.14 ± 0.27	3.47 ± 0.33		
DEMVIVKDIDMFSMCEHHLVPFVG [GCH1]	2.76 ± 0.22	2.64 ± 0.37		
HIWELSSIKNSLKVAAISESPVAE [PTGFR]	3.11 ± 0.28	3.21 ± 0.39		
ASLLHLAVEAGQEECAKWLLLNNA [RIPK4]	2.17 ± 0.068	2.74 ± 0.13		
VDGVWTAQRPGITHGVGLVLRVEQ [SCNN1D]	2.21 ± 0.35	2.44 ± 0.24		
SGTIMKIGIEAKNLASYDVCSILL [MCOLN1]	2.87 ± 0.55	2.64 ± 0.37		
FTFLGKKCVTMSSAVVQLYAADRN [WASL]	2.33 ± 0.34	2.43 ± 0.36		
GEDTRLSASEMKQLIDNILEESDI [CIB1]	5.27 ± 0.27	5.26 ± 0.25		

Sequence	protein stability index [1]	protein stability index [2]	protein stability index (treatment: DMSO, c terminus: native)	protein stability index (treatment: MLN4924 1 uM, 8 h, c terminus: native)
AGGQDMADSMLMQGSRGLTDQAIF [HDAC6]	3.73 ± 0.054	3.86 ± 0.38		
RIHTEEKPYKCQQCDKRFRWSSDL [ZNF75A]	3 ± 0.2	2.94 ± 0.091		
KAKRNRTCRPPSSSESSSDSDNSG [ANKRD17]	5.64 ± 0.27	5.43 ± 0.2		
TPTSPECDYSQYFKTIEELRDKIM [KRT15]	3.4 ± 0.27	3.6 ± 0.43		
QAASRIIRNEQFAIRRFQSMPVRL [CDC25B]	2.75 ± 0.31	2.74 ± 0.49		
SLQLVFGIELMEVDPIGHLYIFAT [MAGEA3]	2.91 ± 0.23	2.74 ± 0.76		
HRRTVKMRKGNTMQQFLQKALEIL [FAM50A]	3.08 ± 0.36	2.77 ± 0.42		
VIPFKVDTILKYLKDHFSHLLGIP [IQUB]	2.92 ± 0.12	2.65 ± 0.18		
ARTFGNEARFIRRSCTPNAEVRHE [KMT2E]	3.2 ± 0.51	3.22 ± 0.26		
QKKIGAYDQQIWEKSIEQTQIKGL [PHTF1]	3.76 ± 0.12	3.73 ± 0.22		
AGNKAALLDQIREGAQLKKVEQNS [WASL]		5.24 ± 0.4		
EAARNGKMKFVIGNGKNLVDFTFV [NSDHL]	2.17 ± 0.47	2.04 ± 0.35		
PCKLEKMRILAHGELVLATAISSF [TLE6]	2.7 ± 0.36	2.45 ± 0.41		
AQTPPRPGPPSAPPPPPKEGHQEG [SCNN1D]	5.73 ± 0.27	5.08 ± 0.72		
MTEMSFLSSEVLVGDLMSPFDQSG [ATF4]	3.37 ± 0.1	3.24 ± 0.37		
DNDPSCVHPIIKRRQCRPEIRMWQ [PHTF1]	2.54 ± 0.25	2.5 ± 0.41		
VTCKDKKGYTPLHAAASNGQINVV [ANKRD44]	3.34 ± 0.12	3.24 ± 0.27		
TLRQKTVDWRRVSRLQEDPEGTEN [SLA]	4.87 ± 0.27	4.79 ± 0.52		
RGKKLMVLTEPILIETYTGLMSFI [TPRG1]	2.95 ± 0.34	2.6 ± 0.48		
CLKEFPEKQELHRNMLGLLGNVAE [ZER1]	3.19 ± 0.15	3.3 ± 0.23		
VGVFLDFESGSVSFLNVTKSSLIW [TRIM43]	3.08 ± 0.73	2.506 ± 0.003		
LSRHDKAVQRFCLIGSLSKHESEY [NETO1]	2.72 ± 0.12	2.69 ± 0.072		
VAQFVLTEGNPRWEQTHLTYRIEN [MMP1]	2.35 ± 0.36	2.35 ± 0.43		

Sequence	protein stability index [1]	protein stability index [2]	protein stability index (treatment: DMSO, c terminus: native)	protein stability index (treatment: MLN4924 1 uM, 8 h, c terminus: native)
HPPPSTPIKLEEGDGCAREYLLP [ADD1]			5.13 ± 0.2	4.81 ± 0.09
TVDKEVEIRKKVLKIYNKREEDFP [MNAT1]	4.08 ± 0.17	4.27 ± 0.12		
SGGVASFICQATGDPRPKIVWNKK [PTPRD]	3.46 ± 0.49	3.58 ± 0.11		
GSFHGPGHISLRRENSSDSPKELK [DLC1]	4.99 ± 0.39	5.09 ± 0.41		
IVTWFMLLYAQGLLAIQFLEFFYG [SLC19A2]	3.28 ± 0.52	3.18 ± 0.46		
PPKWQIGEQEFEALMRMLDNLGYR [ADD1]	2.35 ± 0.26	2.58 ± 0.22		
ASQPRGPALLFPATRGVPAKRLLD [TRIB1]	3.72 ± 0.62	3.9 ± 0.36		
LSAASPDTGHDSDKSDQSLPNASA [TRAF3IP2]	5.53 ± 0.28	5.51 ± 0.13		
ARMGFNASSMLRKSQLGFLNVTNY [DCAF4]	2.26 ± 0.13	2.24 ± 0.14		
SPGHSSAGQEGEDTLRRRLLAPEA [TOR1AIP2]	4.29 ± 0.052	4.51 ± 0.27		
EYGTCMCLVKGIFYHCSNDDEGDS [SPRY1]	3.14 ± 0.21	3.27 ± 0.23		
LHYFPFFLMGRVLYFHHYFPAMLF [POMT2]	3.09 ± 0.93	2.58 ± 0.52		
LSKFDLPEEPSAEDSINNSLVQLQ [MYBL2]	4.88 ± 0.13	4.85 ± 0.16		
VCQEVLERSRDVVDDVSVSLRLWD [RHOBTB2]	3.31 ± 0.19	3.44 ± 0.37		
KKINTEGDVPPSMSGSCAVCVDRV [KLHDC2]	4.18 ± 0.34	4.29 ± 0.17		
CDDSFTPQEKLWQQLRRGRYVEFN [CPOX]	3.08 ± 0.14	2.89 ± 0.3		
LWSDPDDRGGWGISPRGAGYTFGQ [PPP2CA]	2.5 ± 0.31	2.72 ± 0.26		
TLDGYGIHPKSIDLDNYFTARRLL [NFE2L1]	2.37 ± 0.41	2.28 ± 0.26		
LLSIGPELPKPEVISQLEQGTELW [ZNF8]	4.19 ± 0.28	3.54 ± 0.099		
RLDLAAVTLRRGLRSRASRCRPRS [FAM189A2]	3.7 ± 0.15	3.89 ± 0.32		
